This is an account of results in patent US20180334494A1 (UNIVERSITY OF VIRGINIA PATENT FOUNDATION, published 2018).

Numbering of substitutions follows the chain as printed.

This experiment concerns the target T1, C-terminal domain of Zaire Ebola virus Nucleoprotein (NP^Ct) (Zaire Ebola virus, UniProt P18272 641-739).
T1 construct: also called Zaire NP^Ct; Zaire EBOV NP^Ct
The experiment can be described thus: ITC.

T1 sequence (P18272 641-739, tags left off): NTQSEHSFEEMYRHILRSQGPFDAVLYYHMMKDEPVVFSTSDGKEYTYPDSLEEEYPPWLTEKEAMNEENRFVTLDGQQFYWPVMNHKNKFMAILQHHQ

B1: Fab 6 (Fab, V domains shown)
VH: EVQLVESGGGLVQPGGSLRLSCAASGFNVYYYYIHWVRQAPGKGLEWVASISPYYGYTSSYADSVKGRFTISADTSKNTAYLQMNSLRAEDTAVYYCARWSYDQSMSYKSGMDYWGQGTLVTVSS
VL: DIQMTQSPSSLSASVGDRVTITCRASQSVSSAVAWYQQKPGKAPKLLIYSASSLYSGVPSRFSGSRSGTDFTLTISSLQPEDFATYYCQQYSYSLVTFGQGTKVEIKR
On to B1, for which the Kd is roughly 5 nM.

B2: Fab 20 (Fab, V domains shown)
VH: EVQLVESGGGLVQPGGSLRLSCAASGFNISYSSIHWVRQAPGKGLEWVASIYSYSGYTSYADSVKGRFTISADTSKNTAYLQMNSLRAEDTAVYYCARSYWYHVGSWHYTGMDYWGQGTLVTVSS
VL: B1 VL with Y91S, Y93S, V96I
B2 returned a Kd of roughly 5 nM.

What is called Kd is a measure of binding affinity in units of concentration.
